For one molecule, serum chemistry panel and plasma clearance results are on record in patent US20200138716A1, “COMPOSITIONS AND METHODS FOR INDUCING NANOPARTICLE-MEDIATED MICROVASCULAR EMBOLIZATION OF TUMORS” (Poseida Therapeutics, Inc., priority 2014, published 2020).

The nature of data set [1]: Serum chemistry panel in tumor-bearing mice. Type of data set: in vivo. The settings on record: n=5 mice per treatment. As for the experimental part:
In example studies, 0.5×106 to 1×10^6 4T1 mouse mammary carcinoma cells were injected into the mammary fat pads of balb/c mice. Once the tumors were greater than 5 mm in diameter, mice were randomized and treated via tail vein catheter with PEMs (at 100 μL of 2.5 mg/mL Mb, corresponding to 50 mg/mL polymer suspensions), empty polymersomes (at equivalent polymer doses), and NIR-Mb (at equivalent myoglobin doses) (n=5 per group). NIR-Mb and PEM were reduced to their oxy-myoglobin form prior to treatment, following protocols discussed above. Mice were sacrificed at 24 h (for biodistribution/pharmacokinetic studies) or at 6-9 days (for histology and toxicology assessment following tumor efficacy studies). In both cases, EF-5 was used to stain for hypoxia and Hoechst solution for perfusion. Tumors were collected at sacrifice. Immunofluorescence (IF) was carried out to image EF-5 and Hoechst distribution throughout the tumors. The same tumor sections were also stained with hematoxylin and eosin (H&E) for immunohistologic (IHC) analysis. Blood was collected via cardiac puncture at sacrifice; plasma was isolated and stored at −80° C. for later analyses.
FIG. 21 provides results of a serum chemistry panel done for a set of tumor-bearing mice injected with each of the following treatments (n=5 mice per treatment): NIR-myoglobin (control), empty polymersomes (control), and PEMs.

The nature of data set [2]: Biodistribution and pharmacokinetics after IV injection in 4T1 tumor-bearing mice. Type of data set: in vivo, balb/c mice. The settings on record: via the kidneys and into the bladder. As for the experimental part: In example studies, 0.5×106 to 1×10^6 4T1 mouse mammary carcinoma cells were injected into the mammary fat pads of balb/c mice. Once the tumors were greater than 5 mm in diameter, mice were randomized and treated via tail vein catheter with PEMs (at 100 μL of 2.5 mg/mL Mb, corresponding to 50 mg/mL polymer suspensions), empty polymersomes (at equivalent polymer doses), and NIR-Mb (at equivalent myoglobin doses) (n=5 per group). NIR-Mb and PEM were reduced to their oxy-myoglobin form prior to treatment, following protocols discussed above. […]
Fluorescence images were analyzed with Living Image) 4.2 software by measuring radiant efficiency of regions of interest (ROIs). […] The total radiant efficiency of the plasma in each capillary tube was measured in a region of interest of consistent dimensions. Plasma concentrations of PEM and empty polymersomes were calculated based on a standard curve, which was first determined by adding solutions of known concentrations of PZn3-loaded emissive polymersomes to untreated plasma and measuring fluorescence from the capillary tubes. […] Myoglobin concentration versus time was estimated based on the PZn3 fluorescence of the PEM and the IRDye800 fluorescence of NIR-Mb, respectively, with the assumption that all myoglobin remained associated with the PEM following injection.

B1: NIR-Mb: near-infrared fluorophore (IRDye800cw NHS) covalently attached to the lysines on horse skeletal myoglobin (conjugate, UniProt P68082 2-154, looked up)
Myoglobin: GLSDGEWQQVLNVWGKVEADIAGHGQEVLIRLFTGHPETLEKFDKFKHLKTEAEMKASEDLKKHGTVVLTALGGILKKKGHHEAELKPLAQSHATKHKIPIKYLEFISDAIIHVLHSKHPGDFGADAQGAMTKALELFRNDIAAKYKELGFQG
modifications: IRDye800CW on lysines
notes: near-infrared fluorophore (IRDye800cw NHS) covalently attached to the lysines on horse skeletal myoglobin
As for B1, the serum chemistry panel entry in data set [1] is reported as “no consistently elevated levels for any parameter”. Further, in data set [2], the plasma clearance entry is “extremely rapid plasma clearance”.
